Results reported in article PMC10897159, “Structural insights into the activation mechanism of antimicrobial GBP1” (The EMBO Journal, 2024).

What was measured:
[1] = molecular target: the molecule itself; assay: SEC; analytical SEC (Superdex 200 5/150), 20 µM protein with 200 µM GDP, 300 µM AlCl3, 10 mM NaF (GDP•AlFx); 50 mM Tris-HCl pH 7.9, 150 mM NaCl, 5 mM MgCl2
[2] = molecular target: the molecule itself; assay: specific GDPase activity against protein concentration (HPLC), quadratic fit; apparent Kd of dimer formation; isolated LG domains, 1 mM GDP, 37 °C, 50 mM Tris-HCl pH 7.9, 150 mM NaCl, 5 mM MgCl2; dimer to monomers

B1: isolated LG domain of GBP1, wild-type (domain or fragment, human, UniProt P32455 1-317, looked up)
chain: MASEIHMTGPMCLIENTNGRLMANPEALKILSAITQPMVVVAIVGLYRTGKSYLMNKLAGKKKGFSLGSTVQSHTKGIWMWCVPHPKKPGHILVLLDTEGLGDVEKGDNQNDSWIFALAVLLSSTFVYNSIGTINQQAMDQLYYVTELTHRIRSKSSPDENENEVEDSADFVSFFPDFVWTLRDFSLDLEADGQPLTPDEYLTYSLKLKKGTSQKDETFNLPRLCIRKFFPKKKCFVFDRPVHRRKLAQLEKLQDEELDPEFVQQVADFCSYIFSNSKTKTLSGGIQVNGPRLESLVLTYVNAISSGDLPCMENAVL
notes: large GTPase (LG) domain of GBP1, human; stop codon in place of A318 (primer A318*); also called wild-type LG domain; WT; source: E. coli, pQE-80L, purified (Ni Sepharose HP, Superdex 200)
For B1, the “stoichiometry N” value [1] was 2 and the Kd [2] was 110 µM.
